The values below come from patent US20160033516A1 (SALK INSTITUTE FOR BIOLOGICAL STUDIES, published 2016).

The target of assay [1] is ACLY-like H760 peptide AGAG-X-AGAG, X = 1-pTza (mammalian). The assay is described as follows: synthetic peptide dot blot array.
Assay [2] deals with GNB1 H266 peptide MTYS-X-DNII, X = 1-pTza (mammalian). The assay can be described thus: synthetic peptide dot blot array.
The target in assay [3] is Histone H4 H18 peptide GAKR-X-RKVL, X = 1-pTza (mammalian). The assay is described as follows: synthetic peptide dot blot array.
The target of assay [4] is NME1 H118 peptide RNII-X-GSDS, X = 1-pTza (mammalian). The assay is described as follows: synthetic peptide dot blot array.
Assay [5] addresses ACLY (ATP-citrate lyase) in mammalian cell lysates (human) (UniProt P53396). The assay is described as follows: SILAC LC-MS/MS of mAb column eluate E1, FLAG-NME1 293 lysate, untreated over acid/heat-treated.
The target in assay [6] is GAPDH in lysates of FLAG-NME1 HEK 293 cells (human) (UniProt P04406). The description is as above.
The target of assay [7] is Histone H4 in lysates of FLAG-NME1 HEK 293 cells (human) (UniProt P62805). The assay is described as above.
The target of assay [8] is LDHA in lysates of FLAG-NME1 HEK 293 cells (human) (UniProt P00338). The assay is described as above.
Assay [9] deals with NME1 in lysates of FLAG-NME1 HEK 293 cells (human) (UniProt P15531). Described as above.
For assay [10], the target named is NME2 in lysates of FLAG-NME1 HEK 293 cells (human) (UniProt P22392). The assay is described as above.
For assay [11], the target named is RPS3A in lysates of FLAG-NME1 HEK 293 cells (human) (UniProt P61247). The assay is described as above.
Assay [12] addresses TCP1 in lysates of FLAG-NME1 HEK 293 cells (human) (UniProt P17987). The description is as above.
Assay [13] deals with TUBB in lysates of FLAG-NME1 HEK 293 cells (human) (UniProt P07437). The description is as above.
In assay [14] the target is ACLY (ATP-citrate lyase) in mammalian cell lysates (human) (UniProt P53396). The assay can be described thus: SILAC LC-MS/MS of mAb column eluate E2, FLAG-NME1 293 lysate, untreated over acid/heat-treated.
Assay [15] has as its target GAPDH in lysates of FLAG-NME1 HEK 293 cells (human) (UniProt P04406). Described as above.
The target of assay [16] is Histone H4 in lysates of FLAG-NME1 HEK 293 cells (human) (UniProt P62805). The assay is described as above.
Assay [17] concerns the target LDHA in lysates of FLAG-NME1 HEK 293 cells (human) (UniProt P00338). Described as above.
In assay [18] the target is NME1 in lysates of FLAG-NME1 HEK 293 cells (human) (UniProt P15531). Described as above.
Assay [19] addresses NME2 in lysates of FLAG-NME1 HEK 293 cells (human) (UniProt P22392). Described as above.
Assay [20] deals with PGAM, endogenous, in lysates of FLAG-NME1 HEK 293 cells (human) (UniProt P18669). The assay is described as above.
In assay [21] the target is RPS3A in lysates of FLAG-NME1 HEK 293 cells (human) (UniProt P61247). Described as above.
Assay [22] addresses SCS (succinyl-CoA synthetase) in mammalian cell lysates (human) (UniProt P53597). Described as above.
In assay [23] the target is TCP1 in lysates of FLAG-NME1 HEK 293 cells (human) (UniProt P17987). The description is as above.
Assay [24] concerns the target TUBB in lysates of FLAG-NME1 HEK 293 cells (human) (UniProt P07437). Described as above.
Assay [25] has as its target YWHAB in lysates of FLAG-NME1 HEK 293 cells (human) (UniProt P31946). Described as above.
Assay [26] concerns the target 506 proteins enriched by at least 2-fold in 3-pHis column elutions E1-E3. The assay is described as follows: SILAC LC-MS/MS of mAb column eluates E1-E3, FLAG-NME1 293 lysate.
Assay [27] concerns the target PGAM, endogenous, in lysates of FLAG-NME1 HEK 293 cells (human) (UniProt P18669). The assay can be described thus: SILAC LC-MS/MS of mAb column eluate E1, FLAG-NME1 293 lysate, untreated over acid/heat-treated.
Assay [28] deals with YWHAB in lysates of FLAG-NME1 HEK 293 cells (human) (UniProt P31946). The description is as above.
The target in assay [29] is GNB1 in lysates of FLAG-NME1 HEK 293 cells (human, UniProt P62873 2-340, phosphohistidine, annotated site printed H226 in Table 1 (H266 elsewhere)). The assay can be described thus: SILAC LC-MS/MS of mAb column eluate E2, FLAG-NME1 293 lysate, untreated over acid/heat-treated. On the procedure:
A dramatic decrease of pHis in the heavy lysates was confirmed by immunoblotting. Both lysates were neutralized, diluted (1:5 to 1 M urea, pH 8), mixed together and one half was passed over the 1-pHis mAb column while the other half was passed over the 3-pHis mAb column. LC-MS/MS analysis was performed on tryptic peptides derived from proteins that eluted off the columns at pH 11. A SILAC ratio (light/heavy) was calculated for each peptide to determine which proteins were enriched in the untreated, light vs. heavy lysates that had been treated to reduce pHis.
After crosslinking, pHis mAb resins (˜750 μl each) were packed in 10 ml chromatography columns (BioRad) and stored at 4° C. in or equilibrated with Wash/Binding Buffer (50 mM Tris, 30 mM sodium carbonate pH 8 (prepared by dilution of 100 mM sodium carbonate buffer pH 10 with H₂O and 1 M Tris pH 7)). Stable isotope labeling by amino acids in cell culture (SILAC) was performed on FLAG-NME1 293 cells which were metabolically labeled with Arg (¹³C₆/¹⁵N₄) and Lys (¹³C₆). These “heavy” labeled cells were used as an internal negative control for pHis mAb binding. Non-labeled, “light” FLAG-NME1 293 cells were cultured in parallel. For cell lysis, precautions were taken to preserve pHis and avoid salts and detergents that can interfere with downstream MS analysis. […]

Sequence of GAPDH in lysates of FLAG-NME1 HEK 293 cells (human) (P04406 2-335 limits assumed): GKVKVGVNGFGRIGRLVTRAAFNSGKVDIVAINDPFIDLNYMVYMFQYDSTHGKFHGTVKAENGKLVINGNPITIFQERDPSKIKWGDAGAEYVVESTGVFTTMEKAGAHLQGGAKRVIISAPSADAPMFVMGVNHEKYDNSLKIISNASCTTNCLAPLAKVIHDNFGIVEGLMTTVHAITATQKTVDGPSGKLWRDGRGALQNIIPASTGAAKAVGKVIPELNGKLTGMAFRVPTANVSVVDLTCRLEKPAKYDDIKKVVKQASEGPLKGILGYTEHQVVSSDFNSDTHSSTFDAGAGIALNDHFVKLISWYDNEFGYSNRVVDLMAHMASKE
Sequence of TCP1 in lysates of FLAG-NME1 HEK 293 cells (human) (P17987 whole entry): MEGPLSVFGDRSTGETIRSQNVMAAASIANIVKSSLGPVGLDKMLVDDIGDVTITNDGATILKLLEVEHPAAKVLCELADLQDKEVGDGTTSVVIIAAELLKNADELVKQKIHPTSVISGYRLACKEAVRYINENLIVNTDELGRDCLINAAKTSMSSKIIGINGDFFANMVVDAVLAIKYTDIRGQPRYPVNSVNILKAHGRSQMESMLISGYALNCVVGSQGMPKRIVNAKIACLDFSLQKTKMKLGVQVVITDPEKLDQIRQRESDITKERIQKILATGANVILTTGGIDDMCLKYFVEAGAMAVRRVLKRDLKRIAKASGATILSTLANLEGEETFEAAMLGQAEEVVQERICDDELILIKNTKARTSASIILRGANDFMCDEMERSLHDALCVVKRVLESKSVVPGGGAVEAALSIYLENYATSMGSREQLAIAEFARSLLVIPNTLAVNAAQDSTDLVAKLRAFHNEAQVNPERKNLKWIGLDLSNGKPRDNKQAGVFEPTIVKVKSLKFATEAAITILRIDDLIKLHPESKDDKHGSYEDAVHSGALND
Sequence of TUBB in lysates of FLAG-NME1 HEK 293 cells (human) (P07437 whole entry): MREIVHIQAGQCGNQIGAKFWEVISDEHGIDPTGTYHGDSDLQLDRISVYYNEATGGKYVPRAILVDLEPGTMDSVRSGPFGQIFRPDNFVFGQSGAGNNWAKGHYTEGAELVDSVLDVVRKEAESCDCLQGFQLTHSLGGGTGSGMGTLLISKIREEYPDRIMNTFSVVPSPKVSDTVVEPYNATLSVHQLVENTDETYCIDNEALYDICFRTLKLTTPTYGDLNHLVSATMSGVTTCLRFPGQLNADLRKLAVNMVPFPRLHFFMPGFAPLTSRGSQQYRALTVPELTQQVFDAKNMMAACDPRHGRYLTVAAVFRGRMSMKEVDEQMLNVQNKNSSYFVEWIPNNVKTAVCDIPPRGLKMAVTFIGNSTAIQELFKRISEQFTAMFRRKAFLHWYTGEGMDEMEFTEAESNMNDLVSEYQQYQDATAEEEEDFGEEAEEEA
Sequence of PGAM, endogenous, in lysates of FLAG-NME1 HEK 293 cells (human) (P18669 2-254 limits assumed): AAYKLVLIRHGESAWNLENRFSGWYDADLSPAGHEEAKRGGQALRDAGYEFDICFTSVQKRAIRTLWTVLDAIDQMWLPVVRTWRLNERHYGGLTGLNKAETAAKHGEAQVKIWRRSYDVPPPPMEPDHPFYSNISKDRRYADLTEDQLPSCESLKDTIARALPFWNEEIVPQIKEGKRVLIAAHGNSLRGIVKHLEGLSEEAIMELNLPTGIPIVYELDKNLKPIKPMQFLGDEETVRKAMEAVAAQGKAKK
Sequence of YWHAB in lysates of FLAG-NME1 HEK 293 cells (human) (P31946 whole entry): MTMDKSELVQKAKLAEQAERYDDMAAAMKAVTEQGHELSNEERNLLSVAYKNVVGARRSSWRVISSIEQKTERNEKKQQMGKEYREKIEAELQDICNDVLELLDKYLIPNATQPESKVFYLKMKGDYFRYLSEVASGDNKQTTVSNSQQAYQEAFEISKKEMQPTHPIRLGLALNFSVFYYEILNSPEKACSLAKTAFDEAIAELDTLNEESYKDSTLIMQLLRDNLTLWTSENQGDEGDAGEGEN
Sequence of ACLY (ATP-citrate lyase) in mammalian cell lysates (human) (P53396 whole entry): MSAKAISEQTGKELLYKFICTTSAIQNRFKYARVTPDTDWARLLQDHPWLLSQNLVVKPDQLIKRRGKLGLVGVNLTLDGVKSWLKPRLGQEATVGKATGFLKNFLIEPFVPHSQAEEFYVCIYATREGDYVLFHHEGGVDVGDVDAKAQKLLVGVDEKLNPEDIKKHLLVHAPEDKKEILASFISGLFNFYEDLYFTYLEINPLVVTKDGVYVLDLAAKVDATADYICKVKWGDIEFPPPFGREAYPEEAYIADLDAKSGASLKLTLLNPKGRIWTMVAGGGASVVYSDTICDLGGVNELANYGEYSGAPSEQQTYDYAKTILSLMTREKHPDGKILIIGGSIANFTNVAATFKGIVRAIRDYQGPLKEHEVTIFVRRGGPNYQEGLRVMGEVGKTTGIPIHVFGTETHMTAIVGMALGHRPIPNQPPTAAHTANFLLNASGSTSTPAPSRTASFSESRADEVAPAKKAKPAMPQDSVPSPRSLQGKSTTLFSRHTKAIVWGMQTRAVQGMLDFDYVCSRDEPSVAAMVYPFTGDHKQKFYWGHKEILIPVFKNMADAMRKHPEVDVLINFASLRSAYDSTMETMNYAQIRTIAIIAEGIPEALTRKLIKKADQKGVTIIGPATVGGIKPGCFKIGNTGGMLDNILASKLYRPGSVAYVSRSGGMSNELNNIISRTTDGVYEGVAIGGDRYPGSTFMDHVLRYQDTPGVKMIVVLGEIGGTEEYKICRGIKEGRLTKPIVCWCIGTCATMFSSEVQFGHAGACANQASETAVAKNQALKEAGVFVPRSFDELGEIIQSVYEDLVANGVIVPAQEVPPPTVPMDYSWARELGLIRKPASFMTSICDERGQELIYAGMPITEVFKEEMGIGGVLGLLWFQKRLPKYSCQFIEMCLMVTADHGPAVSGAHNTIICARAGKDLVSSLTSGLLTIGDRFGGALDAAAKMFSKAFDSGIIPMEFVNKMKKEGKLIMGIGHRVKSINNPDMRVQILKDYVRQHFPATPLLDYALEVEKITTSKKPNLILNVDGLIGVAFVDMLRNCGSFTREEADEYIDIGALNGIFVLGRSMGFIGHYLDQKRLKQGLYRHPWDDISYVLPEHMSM
Sequence of NME1 in lysates of FLAG-NME1 HEK 293 cells (human) (P15531 2-152 limits assumed): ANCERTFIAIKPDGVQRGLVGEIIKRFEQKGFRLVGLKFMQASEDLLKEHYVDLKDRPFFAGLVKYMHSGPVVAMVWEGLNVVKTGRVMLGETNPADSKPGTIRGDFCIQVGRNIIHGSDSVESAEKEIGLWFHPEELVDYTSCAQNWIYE
Sequence of NME2 in lysates of FLAG-NME1 HEK 293 cells (human) (P22392 whole entry): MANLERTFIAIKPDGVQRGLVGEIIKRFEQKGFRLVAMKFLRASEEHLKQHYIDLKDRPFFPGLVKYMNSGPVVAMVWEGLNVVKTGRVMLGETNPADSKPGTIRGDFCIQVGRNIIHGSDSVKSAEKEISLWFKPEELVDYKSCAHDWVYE
Sequence of GNB1 in lysates of FLAG-NME1 HEK 293 cells (P62873 2-340 limits assumed): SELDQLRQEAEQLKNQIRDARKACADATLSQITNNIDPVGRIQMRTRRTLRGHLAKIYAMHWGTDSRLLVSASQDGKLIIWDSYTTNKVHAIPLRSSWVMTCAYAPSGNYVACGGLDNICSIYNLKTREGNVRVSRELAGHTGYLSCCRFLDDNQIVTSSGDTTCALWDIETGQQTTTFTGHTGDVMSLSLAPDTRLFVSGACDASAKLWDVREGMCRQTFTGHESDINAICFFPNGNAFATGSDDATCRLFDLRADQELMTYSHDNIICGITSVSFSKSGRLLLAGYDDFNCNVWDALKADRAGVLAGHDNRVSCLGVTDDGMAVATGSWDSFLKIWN
Sequence of SCS (succinyl-CoA synthetase) in mammalian cell lysates (human) (P53597 41-346): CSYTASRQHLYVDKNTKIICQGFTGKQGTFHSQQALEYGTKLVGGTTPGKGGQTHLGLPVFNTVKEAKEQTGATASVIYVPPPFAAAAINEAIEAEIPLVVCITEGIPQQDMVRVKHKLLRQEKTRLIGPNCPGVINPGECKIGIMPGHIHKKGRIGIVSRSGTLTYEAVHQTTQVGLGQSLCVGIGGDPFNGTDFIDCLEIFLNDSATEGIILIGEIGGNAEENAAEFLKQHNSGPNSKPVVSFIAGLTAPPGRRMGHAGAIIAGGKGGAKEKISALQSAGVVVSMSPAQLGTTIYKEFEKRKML

On to anti-1-pHis mAb SC1-1 (antibody), for which the least amount detected in assay [1], in assay [2], in [3] and in [4] was 20 ng throughout. Moreover, the SILAC ratio (light/heavy) in assay [5] was 5.29 fold; in assay [6], 3.4 fold; in assay [7], 19.1 fold; in assay [8], 4.18 fold; in [9], 15.1 fold; in [10] it was 15.6 fold. Also, the SILAC ratio (light/heavy) in assay [11] is 7.21 fold; in [12] it was 6.1 fold; in assay [13], 3.55 fold; in assay [14], 7.2 fold; in assay [15], 4.45 fold; in [16], 9.8 fold. Further, the SILAC ratio (light/heavy) in [17] is 6.5 fold; in [18] it was 51.9 fold; in [19] it was 56 fold; in assay [20], 4.25 fold; in assay [21], 9.1 fold; in assay [22], 1.68 fold. Moreover, the SILAC ratio (light/heavy) was 5.99 fold in assay [23], 4.49 fold in [24] and 2.04 fold in assay [25].

With anti-1-pHis mAb SC50-3 (antibody), the least amount detected in [1], in [2], in assay [3] and in assay [4] was 20 ng throughout.

B1: anti-3-pHis mAb SC39-4 (antibody, V domains shown, not shown: a dimerising Fc or GST)
VH: ESGGRLVTPGGSLTLTCTVSGFSLSRYNMGWVRQAPGKGLEWIGWIPFRGSLKYATWATGRFTISRTSTTVDLRMTGLTAADTATYFCVRSSDGFDLWGPGTLVTVSS
VL: QFVMTQTPASVEAVVGGTVTIKCQASRDTGDGLIWYQQKPGQPPKRLIYKASTVASGVPSRFKGRGSGTDFTLTISDLECADAATYYCHSNFYNRWTYGNAFGGGTEVVVKG
notes: Rabbit hybridoma monoclonal IgG, used as whole IgG (free or crosslinked to protein-A agarose)
Take B1: the fold enrichment (SILAC ratio light/heavy) in assay [26] is > 2 fold. Further, the SILAC ratio (light/heavy) in assay [5] came to 11.6 fold; in [6] it was 4.76 fold; in assay [7] it was 22.8 fold; in assay [8] it was 6.6 fold; in assay [9], 118 fold; in assay [10] it was 3.46 fold. The SILAC ratio (light/heavy) was 4.01 fold in assay [27]; 10.4 fold in assay [11]; 5.98 fold in [12]; 4.33 fold in assay [13]; 7.43 fold in [28]; 2.99 fold in assay [14]. For the same molecule, the SILAC ratio (light/heavy) worked out at 3.32 fold in [15]; 17.9 fold in assay [16]; 3.08 fold in [17]; 2.14 fold in [18]; 2.44 fold in [20]; 4.98 fold in [21]. Moreover, the SILAC ratio (light/heavy) is 3.2 fold in assay [23], 2.09 fold in assay [24], 1.63 fold in assay [25] and 1.21 fold in [29].
